These results are taken from patent US20180364250A1 (COLORADO STATE UNIVERSITY RESEARCH FOUNDATION, published 2018).

In test [1] the target is T1, Nedd8 (human, UniProt Q15843 1-76).
T1 construct: also called free Nedd8; Nedd8 protein
As to the kind of experiment: fluorescence intensity, free Nedd8 titrated into Atto532-tIV.

The target in test [2] is T2, Ubiquitin (free, untagged) (human, UniProt P0CG48 1-76).
T2 construct: also called free ubiquitin; unconjugated ubiquitin protein
Put plainly: fluorescence intensity of the Atto532-tagged sensor against free ubiquitin concentration, single-site fit.

Test [3] has as its target T2, Ubiquitin (free, untagged). Put plainly: relative fluorescence competition against 5 nM Atto532-tagged ubiquitin on 600 nM tSR.
For test [4], the target named is T1, Nedd8. Put plainly: direct titration, relative fluorescence of 10 nM Alexa488 tSR.

T1 sequence (Q15843 1-76 limits assumed): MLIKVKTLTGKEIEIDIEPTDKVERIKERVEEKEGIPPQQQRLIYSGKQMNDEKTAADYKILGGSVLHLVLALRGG

B1: Atto532-tagged tIV L1 Cys (designed binder)
chain: MGSSHHHHHHSSGLVPRGSHMKQEVQAWDGEVRQVSKHAFSLKQLDNPARIPPSGWKCSKCDMRENLWLNLTDGSILCGRRYFDGSGGNNHAVEHYRETGYPLAVKLGTITPDGADVWSYDEDDMVLDPSLAEHLSHFGIDMLKMQKGSCAAAEEAELDLKAAIQESLREA
modifications: Atto532 fluorophore on the Cys of linker 1 (the bold C of the 2nd table)
notes: Two domains: IsoT^ZnF and Vps27^UIM; also called Atto532-tIV
Molecule B1 had a Kd with Nedd8 [1] of 9.4 µM. Further, the binding result in test [2] is recorded as “binds”.

B2: tSR chimeric polypeptide sensor (designed binder)
chain: MPSSHHHHHHSSGLVPRGSHMTEEEQIAYAMQMSLREAGGGSDLLCKKGCGYYGNPAWQGFCSKCWREEAHKCAAERAAAE
notes: His-tag leader, S5a^UIM, linker, Ruz; also called tSR chimeric peptide universal sensor
Regarding B2, the binding result in test [3] is on record as “binds”.

B3: Alexa488-tagged tSR (designed binder)
chain: B2 chain
modifications: Alexa488 fluorophore, attachment site not stated
notes: also called Alexa488 tSR; fluorophore-tagged tSR
B3: the binding result with Nedd8 [4] is reported as “no binding”.

B4: Atto532-tagged IsoT^ZnF (S227C) (designed binder)
chain: MPSSHHHHHHSSGLVPRGSHMKQEVQAWDGEVRQVSKHAFSLKQLDNPARIPPSGWKCSKCDMRENLWLNLTDGSILCGRRYFDGCGGNNHAVEHYRETGYPLAVKLGTITPDGADVYSYDEDDMVLDPSLAEHLSHFGIDMLKMQK
modifications: Atto532 fluorophore on the Cys of S227C (the bold C of the 2nd table)
As to B4, the binding result in test [2] is “binds”.

One may read the Kd as a measure of binding affinity in units of concentration. Read a high Kd as weaker binding.
